# Test results: the supplement of paper PMC5998384
# Key:
# [1] = system: HeLa Kyoto; experiment: solubility in G1/S (NP-40 vs SDS abundance) (log2 ratio); higher = more soluble; details: cell cycle stage: G1/S
# [2] = system: HeLa Kyoto; experiment: melting temperature (median over replicates), in situ; higher = more thermally stable
# [3] = system: HeLa Kyoto; experiment: solubility change mitosis vs G1/S (difference of NP-40 vs SDS log2 ratios) (log2 ratio difference); higher = more soluble in mitosis
# [4] = system: HeLa Kyoto; experiment: thermal stability score vs G1/S (z-score of summed log2 fold changes over temperatures); higher = more thermally stable than in G1/S
# [5] = cell cycle stage: early G1 (4.5 h after nocodazole release)
# 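For melting temperature (median over replicates), in situ in this document: HeLa Kyoto cells synchronized by double thymidine or nocodazole block, proteins quantified by TMT10plex mass spectrometry, three independent biological replicates.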
# 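For solubility change mitosis vs G1/S (difference of NP-40 vs SDS log2 ratios) in this document: synchronized HeLa Kyoto cells (double thymidine block for G1/S, nocodazole release for mitosis), protein amounts in NP-40 versus SDS lysates quantified by mass spectrometry, three biological replicates.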
# 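For solubility in G1/S (NP-40 vs SDS abundance) in this document: HeLa Kyoto cells arrested at G1/S by double thymidine block, proteins quantified by TMT10plex mass spectrometry in mild NP-40 versus SDS extracts, three biological replicates.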
# 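For thermal stability score vs G1/S (z-score of summed log2 fold changes over temperatures) in this document: synchronized HeLa Kyoto cells, proteins quantified by TMT10plex mass spectrometry, three biological replicates, mitosis taken 0.5 h after nocodazole release, G1/S directly after double thymidine block.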
sequence,measurement,setting,value
MGFLKLIEIENFKSYKGRQIIGPFQRFTAIIGPNGSGKSNLMDAISFVLGEKTSNLRVKTLRDLIHGAPVGKPAANRAFVSMVYSEEGAEDRTFARVIVGGSSEYKINNKVVQLHEYSEELEKLGILIKARNFLVFQGAVESIAMKNPKERTALFEEISRSGELAQEYDKRKKEMVKAEEDTQFNYHRKKNIAAERKEAKQEKEEADRYQRLKDEVVRAQVQLQLFKLYHNEVEIEKLNKELASKNKEIEKDKKRMDKVEDELKEKKKELGKMMREQQQIEKEIKEKDSELNQKRPQYIKAKENTSHKIKKLEAAKKSLQNAQKHYKKRKGDMDELEKEMLSVEKARQEFEERMEEESQSQGRDLTLEENQVKKYHRLKEEASKRAATLAQELEKFNRDQKADQDRLDLEERKKVETEAKIKQKLREIEENQKRIEKLEEYITTSKQSLEEQKKLEGELTEEVEMAKRRIDEINKELNQVMEQLGDARIDRQESSRQQRKAEIMESIKRLYPGSVYGRLIDLCQPTQKKYQIAVTKVLGKNMDAIIVDSEKTGRDCIQYIKEQRGEPETFLPLDYLEVKPTDEKLRELKGAKLVIDVIRYEPPHIKKALQYACGNALVCDNVEDARRIAFGGHQRHKTVALDGTLFQKSGVISGGASDLKAKARRWDEKAVDKLKEKKERLTEELKEQMKAKRKEAELRQVQSQAHGLQMRLKYSQSDLEQTKTRHLALNLQEKSKLESELANFGPRINDIKRIIQSREREMKDLKEKMNQVEDEVFEEFCREIGVRNIREFEEEKVKRQNEIAKKRLEFENQKTRLGIQLDFEKNQLKEDQDKVHMWEQTVKKDENEIEKLKKEEQRHMKIIDETMAQLQDLKNQHLAKKSEVNDKNHEMEEIRKKLGGANKEMTHLQKEVTAIETKLEQKRSDRHNLLQACKMQDIKLPLSKGTMDDISQEEGSSQGEDSVSGSQRISSIYAREALIEIDYGDLCEDLKDAQAEEEIKQEMNTLQQKLNEQQSVLQRIAAPNMKAMEKLESVRDKFQETSDEFEAARKRAKKAKQAFEQIKKERFDRFNACFESVATNIDEIYKALSRNSSAQAFLGPENPEEPYLDGINYNCVAPGKRFRPMDNLSGGEKTVAALALLFAIHSYKPAPFFVLDEIDAALDNTNIGKVANYIKEQSTCNFQAIVISLKEEFYTKAESLIGVYPEQGDCVISKVLTFDLTKYPDANPNPNEQ [SMC1A],solubility in G1/S (log2),[1],-0.302
same,melting temperature,[2]; cell cycle stage: G1/S,51.9 °C
same,melting temperature,[2]; cell cycle stage: mitosis,51.3 °C
same,solubility change mitosis (log2),[3],0.0456
same,thermal stability score,[4]; [5],-0.868
same,thermal stability score,[4]; cell cycle stage: mitosis,-1.79
MRRFLRPGHDPVRERLKRDLFQFNKTVEHGFPHQPSALGYSPSLRILAIGTRSGAIKLYGAPGVEFMGLHQENNAVTQIHLLPGQCQLVTLLDDNSLHLWSLKVKGGASELQEDESFTLRGPPGAAPSATQITVVLPHSSCELLYLGTESGNVFVVQLPAFRALEDRTISSDAVLQRLPEEARHRRVFEMVEALQEHPRDPNQILIGYSRGLVVIWDLQGSRVLYHFLSSQQLENIWWQRDGRLLVSCHSDGSYCQWPVSSEAQQPEPLRSLVPYGPFPCKAITRILWLTTRQGLPFTIFQGGMPRASYGDRHCISVIHDGQQTAFDFTSRVIGFTVLTEADPAATFDDPYALVVLAEEELVVIDLQTAGWPPVQLPYLASLHCSAITCSHHVSNIPLKLWERIIAAGSRQNAHFSTMEWPIDGGTSLTPAPPQRDLLLTGHEDGTVRFWDASGVCLRLLYKLSTVRVFLTDTDPNENFSAQGEDEWPPLRKVGSFDPYSDDPRLGIQKIFLCKYSGYLAVAGTAGQVLVLELNDEAAEQAVEQVEADLLQDQEGYRWKGHERLAARSGPVRFEPGFQPFVLVQCQPPAVVTSLALHSEWRLVAFGTSHGFGLFDHQQRRQVFVKCTLHPSDQLALEGPLSRVKSLKKSLRQSFRRMRRSRVSSRKRHPAGPPGEAQEGSAKAERPGLQNMELAPVQRKIEARSAEDSFTGFVRTLYFADTYLKDSSRHCPSLWAGTNGGTIYAFSLRVPPAERRMDEPVRAEQAKEIQLMHRAPVVGILVLDGHSVPLPEPLEVAHDLSKSPDMQGSHQLLVVSEEQFKVFTLPKVSAKLKLKLTALEGSRVRRVSVAHFGSRRAEDYGEHHLAVLTNLGDIQVVSLPLLKPQVRYSCIRREDVSGIASCVFTKYGQGFYLISPSEFERFSLSTKWLVEPRCLVDSAETKNHRPGNGAGPKKAPSRARNSGTQSDGEEKQPGLVMERALLSDERVLKEIQSTLEGDRGSGNWRSHRAAVGCSLSNGGAE [LLGL2],solubility in G1/S (log2),[1],-0.27
same,melting temperature,[2]; cell cycle stage: G1/S,51.1 °C
same,melting temperature,[2]; cell cycle stage: mitosis,51.5 °C
same,solubility change mitosis (log2),[3],-0.0143
same,thermal stability score,[4]; [5],-1.83
same,thermal stability score,[4]; cell cycle stage: mitosis,-2.52
MSRKGPRAEVCADCSAPDPGWASISRGVLVCDECCSVHRSLGRHISIVKHLRHSAWPPTLLQMVHTLASNGANSIWEHSLLDPAQVQSGRRKANPQDKVHPIKSEFIRAKYQMLAFVHKLPCRDDDGVTAKDLSKQLHSSVRTGNLETCLRLLSLGAQANFFHPEKGTTPLHVAAKAGQTLQAELLVVYGADPGSPDVNGRTPIDYARQAGHHELAERLVECQYELTDRLAFYLCGRKPDHKNGHYIIPQMADSLDLSELAKAAKKKLQALSNRLFEELAMDVYDEVDRRENDAVWLATQNHSTLVTERSAVPFLPVNPEYSATRNQGRQKLARFNAREFATLIIDILSEAKRRQQGKSLSSPTDNLELSLRSQSDLDDQHDYDSVASDEDTDQEPLRSTGATRSNRARSMDSSDLSDGAVTLQEYLELKKALATSEAKVQQLMKVNSSLSDELRRLQREIHKLQAENLQLRQPPGPVPTPPLPSERAEHTPMAPGGSTHRRDRQAFSMYEPGSALKPFGGPPGDELTTRLQPFHSTELEDDAIYSVHVPAGLYRIRKGVSASAVPFTPSSPLLSCSQEGSRHTSKLSRHGSGADSDYENTQSGDPLLGLEGKRFLELGKEEDFHPELESLDGDLDPGLPSTEDVILKTEQVTKNIQELLRAAQEFKHDSFVPCSEKIHLAVTEMASLFPKRPALEPVRSSLRLLNASAYRLQSECRKTVPPEPGAPVDFQLLTQQVIQCAYDIAKAAKQLVTITTREKKQ [GIT1],solubility in G1/S (log2),[1],0.235
same,melting temperature,[2]; cell cycle stage: G1/S,48.4 °C
same,melting temperature,[2]; cell cycle stage: mitosis,50 °C
same,solubility change mitosis (log2),[3],-0.123
same,thermal stability score,[4]; [5],0.709
same,thermal stability score,[4]; cell cycle stage: mitosis,0.998
